The numbers were not newly measured in patent publication EP4748396A1, “PHARMACEUTICAL COMPOSITION CONTAINING ANTI-NECTIN4 ANTIBODY-DRUG CONJUGATE AND ANTI-PD-1 ANTIBODY AND USE THEREOF” (priority 2023, dated 2025), which cites them from elsewhere.

The conditions of this data set: 2019 FDA announcement.

For Enfortumab Vedotin [PADCEV], the skin adverse reactions entry was “may cause severe skin adverse reactions, including Stevens-Johnson syndrome (SJS) and toxic epidermal necrolysis (TEN)”.
